The values below come from patent publication CN101875694A.

For this test, the target named is 重组人肿瘤坏死因子TNFα (Recombinant Human TNF-α, Peprotech Asia, Cat 300-01A) (human) (UniProt P01375). Briefly: cell-based or functional assay.
Chain of UniProt P01375 (P01375 77-233 limits assumed): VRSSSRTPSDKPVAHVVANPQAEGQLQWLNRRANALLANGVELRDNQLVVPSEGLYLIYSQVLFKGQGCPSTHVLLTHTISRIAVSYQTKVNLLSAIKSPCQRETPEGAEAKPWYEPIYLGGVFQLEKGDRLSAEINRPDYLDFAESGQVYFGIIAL

“野生型全长的D2E7抗体 (full-length wild-type D2E7) (antibody)”: the 小鼠存活率, C57BL/6 given 1μg rhTNFα and D-galactosamine, 5μg antibody came to 0%.
